Here are results for one molecule from US20160002326A1 (AbbVie / Abbott, published 2016).

Where a chain is given by its changes, count along the chain named. In names and notes the source's numbering stands. Where only a bound is given, the exact number is not on record here.

As usually defined, the Kd is the equilibrium constant for the complex coming apart.

The target of one assay is T1, Fcγ RIIIa, variant 158F (UniProt P08637 17-208).
T1 construct: also called FcγRIIIa 158F
Description: Biacore. In general terms: In SPR one partner is held on a chip, and binding of the other changes the refractive index at the surface.

The target in another assay is T2, Fcγ RIIb (UniProt P31994 46-217, limits assumed).
T2 sequence (looked up): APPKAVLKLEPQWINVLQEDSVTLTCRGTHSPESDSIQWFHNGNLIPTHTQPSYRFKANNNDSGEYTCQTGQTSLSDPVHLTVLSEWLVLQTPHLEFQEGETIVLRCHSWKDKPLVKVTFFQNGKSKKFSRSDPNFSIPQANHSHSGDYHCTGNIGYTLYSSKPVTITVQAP
Nature of the assay: Biacore.

Another assay concerns the target T3, Fcγ RIIa, variant 131H (UniProt P12318 36-218, limits assumed).
T3 construct: also called FcγRIIa 131H
T3 sequence (looked up): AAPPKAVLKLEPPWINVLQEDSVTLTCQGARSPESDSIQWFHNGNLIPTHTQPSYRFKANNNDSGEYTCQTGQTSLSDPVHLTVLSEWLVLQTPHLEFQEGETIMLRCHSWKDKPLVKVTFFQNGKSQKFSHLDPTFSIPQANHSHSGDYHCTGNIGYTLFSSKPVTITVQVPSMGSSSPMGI
Nature of the assay: Biacore.

The next assay concerns the target T4, Fcγ RI (UniProt P12314 16-288, limits assumed).
T4 construct: also called FcγR1
Description: Biacore.

Another assay has as its target T5, Fcγ RIIa, variant 131R (UniProt P12318 36-218, limits assumed).
T5 construct: also called FcγRIIa 131R
T5 sequence (looked up): T3 sequence (looked up) with H132R
Nature of the assay: Biacore.

The target in another assay is T6, human IL-17A/A homodimer (human, UniProt Q16552 24-155).
T6 construct: also called hIL-17A/A
T6 sequence: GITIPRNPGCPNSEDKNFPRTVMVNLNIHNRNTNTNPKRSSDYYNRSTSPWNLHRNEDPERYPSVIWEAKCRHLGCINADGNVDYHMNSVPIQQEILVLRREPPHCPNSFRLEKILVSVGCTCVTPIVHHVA
Nature of the assay: Biacore SPR, 3 experiments; same value as Table 7; unit not printed in Table 10.

Another assay deals with T7, human TNF-α (human, UniProt P01375 77-233).
T7 construct: also called hTNF-α; hTNF
Described as above.

Another assay has as its target T8, mouse IL-17 (mouse, UniProt Q62386 26-158, limits assumed).
T8 construct: also called mouse IL-17A; rodent IL-17 (mouse)
T8 sequence (looked up): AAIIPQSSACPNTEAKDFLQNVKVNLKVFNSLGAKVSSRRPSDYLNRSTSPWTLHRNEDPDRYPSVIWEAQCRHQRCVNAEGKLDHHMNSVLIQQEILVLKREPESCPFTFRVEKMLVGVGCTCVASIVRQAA
Description: Biacore SPR, 3 experiments; unit not printed in Table 10.

The target of assay [1] is T9, monkey (Rhesus/Cynomolgus) IL-17 (monkey (Rhesus/Cynomolgus), UniProt F6T3G5 24-155).
T9 construct: also called monkey IL-17; monkey rIL-17
T9 sequence: T6 sequence with T3A, N17T, I77V, P104R
The assay is described as above.

The target in assay [2] is T10, monkey (Rhesus/Cynomolgus) TNF (monkey (Rhesus/Cynomolgus), UniProt P48094 77-233).
T10 construct: also called monkey TNF; monkey rTNF
The description is as above.

Another assay deals with T11, rat IL-17 (rat, UniProt Q61453 18-150, limits assumed).
T11 construct: also called rodent IL-17 (rat)
T11 sequence (looked up): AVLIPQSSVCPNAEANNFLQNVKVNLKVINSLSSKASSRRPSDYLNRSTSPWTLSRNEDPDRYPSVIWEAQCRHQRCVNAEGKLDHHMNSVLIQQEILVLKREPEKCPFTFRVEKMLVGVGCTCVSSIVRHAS
The description is as above.

The target in the next assay is BAFF (UniProt Q9Y275 134-285). Description: direct ELISA. (An ELISA detects its analyte on a solid surface through an enzyme-linked reagent.)
The target in a further assay is T12, IL-17D (UniProt Q8TAD2 16-202, limits assumed).
T12 sequence (looked up): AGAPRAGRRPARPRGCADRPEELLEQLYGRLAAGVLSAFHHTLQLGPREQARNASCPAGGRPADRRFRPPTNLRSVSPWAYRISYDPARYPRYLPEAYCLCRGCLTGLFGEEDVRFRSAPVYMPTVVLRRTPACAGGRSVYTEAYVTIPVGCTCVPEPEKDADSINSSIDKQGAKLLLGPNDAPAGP
Description: direct ELISA.

For the next assay, the target named is T13, rabbit TNF (rabbit, UniProt P04924 80-235, limits assumed).
T13 construct: also called rabbit rTNF
T13 sequence (looked up): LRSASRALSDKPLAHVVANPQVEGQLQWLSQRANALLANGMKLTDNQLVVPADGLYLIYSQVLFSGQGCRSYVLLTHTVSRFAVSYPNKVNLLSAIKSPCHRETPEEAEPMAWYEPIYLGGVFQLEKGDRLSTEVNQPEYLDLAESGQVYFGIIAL
Description: Biacore SPR.

For the next assay, the target named is T14, rat TNF (rat, UniProt P16599 80-235).
T14 construct: also called rodent TNF (rat); rat rTNF
T14 sequence (looked up): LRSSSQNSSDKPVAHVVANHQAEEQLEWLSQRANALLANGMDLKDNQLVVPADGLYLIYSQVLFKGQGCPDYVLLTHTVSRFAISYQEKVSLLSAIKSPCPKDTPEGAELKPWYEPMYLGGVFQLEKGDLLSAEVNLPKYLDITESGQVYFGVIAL
Description: Biacore SPR.

For another assay, the target named is T15, mouse TNF (mouse, UniProt P06804 80-235).
T15 construct: also called murine TNF; rodent TNF (mouse)
T15 sequence (looked up): T14 sequence (looked up) with A22V, I58V, S91N, I96V, M117I, L130Q, I143F, T144A
Nature of the assay: Biacore SPR.

T4 sequence (P12314 16-288 limits assumed): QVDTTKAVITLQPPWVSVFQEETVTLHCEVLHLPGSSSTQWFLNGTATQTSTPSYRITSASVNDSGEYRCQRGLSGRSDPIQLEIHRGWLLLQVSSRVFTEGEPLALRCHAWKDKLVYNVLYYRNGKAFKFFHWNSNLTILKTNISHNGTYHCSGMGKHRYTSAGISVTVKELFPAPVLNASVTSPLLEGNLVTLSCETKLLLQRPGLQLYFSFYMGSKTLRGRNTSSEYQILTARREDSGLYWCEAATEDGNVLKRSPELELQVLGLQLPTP
T10 sequence (P48094 77-233 limits assumed): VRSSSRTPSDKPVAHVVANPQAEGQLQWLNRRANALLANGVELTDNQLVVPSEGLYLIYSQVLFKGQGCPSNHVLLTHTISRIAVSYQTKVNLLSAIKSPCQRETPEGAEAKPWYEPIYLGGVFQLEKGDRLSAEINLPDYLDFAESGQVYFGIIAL
Sequence of BAFF (Q9Y275 134-285 limits assumed): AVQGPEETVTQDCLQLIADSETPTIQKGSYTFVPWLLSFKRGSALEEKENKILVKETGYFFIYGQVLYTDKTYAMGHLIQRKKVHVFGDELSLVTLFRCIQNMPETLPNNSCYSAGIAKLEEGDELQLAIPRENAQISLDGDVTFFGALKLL
T7 sequence (P01375 77-233 limits assumed): as the sequence (P48094 77-233 limits assumed) above, with T44R, N72T, L138R counted along it
T1 sequence (P08637 17-208 limits assumed, change not shown): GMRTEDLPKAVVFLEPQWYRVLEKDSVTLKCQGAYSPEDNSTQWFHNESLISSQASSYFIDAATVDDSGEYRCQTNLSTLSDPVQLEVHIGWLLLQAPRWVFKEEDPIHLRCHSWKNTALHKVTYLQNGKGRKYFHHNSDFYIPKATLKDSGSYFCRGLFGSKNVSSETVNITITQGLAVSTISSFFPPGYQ
Description for human IL-17A/A homodimer: (§1) The apparent association rate (ka) and dissociation rate (kd) were derived and used to calculate the overall equilibrium dissociation constant (KD) for the interaction.
Description for human TNF-α: as §1

B1: ABBV-257 anti-human TNF and IL-17 DVD-Ig binding protein (bispecific antibody, human IgG1, kappa, L234A L235A)
heavy: EVQLVQSGAEVKKPGASVKVSCKASGYTFANYGIIWVRQAPGQGLEWMGWINTYTGKPTYAQKFQGRVTMTTDTSTSTAYMELSSLRSEDTAVYYCARKLFTTMDVTDNAMDYWGQGTTVTVSSGGGGSGGGGSEVQLVQSGAEVKKPGSSVKVSCKASGYTFTDYEIHWVRQAPGQGLEWMGVNDPESGGTFYNQKFDGRVTLTADESTSTAYMELSSLRSEDTAVYYCTRYSKWDSFDGMDYWGQGTTVTVSSASTKGPSVFPLAPSSKSTSGGTAALGCLVKDYFPEPVTVSWNSGALTSGVHTFPAVLQSSGLYSLSSVVTVPSSSLGTQTYICNVNHKPSNTKVDKKVEPKSCDKTHTCPPCPAPEAAGGPSVFLFPPKPKDQLMISRTPEVTCVVVDVSHEDPEVKFNWYVDGVEVHNAKTKPREEQYNSTYRVVSVLTVLHQDWLNGKEYKCKVSNKALPAPIEKTISKAKGQPREPQVYTLPPSREEMTKNQVSLTCLVKGFYPSDIAVEWESNGQPENNYKTTPPVLDSDGSFFLYSKLTVDKSRWQQGNVFSCSVLHEALHNHYTQKSLSLSPGK
light: DIQMTQSPSSLSASVGDRVTITCRASQDISQYLNWYQQKPGKAPKLLIYYTSRLQSGVPSRFSGSGSGTDFTLTISSLQPEDFATYFCQQGNTWPPTFGQGTKLEIKRGGSGGGGSGDIQMTQSPSSLSASVGDRVTITCRASSGIISYIDWFQQKPGKAPKRLIYATFDLASGVPSRFSGSGSGTDYTLTISSLQPEDFATYYCRQVGSYPETFGQGTKLEIKRTVAAPSVFIFPPSDEQLKSGTASVVCLLNNFYPREAKVQWKVDNALQSGNSQESVTEQDSKDSTYSLSSTLTLSKADYEKHKVYACEVTHQGLSSPVTKSFNRGEC
modifications: N-linked glycans on the heavy chain at the asparagine commonly modified on IgG1 antibodies (fucosylated biantennary oligosaccharides with 0, 1 or 2 galactose residues)
notes: It says the constant region carries L234A, L235A and also T250Q and M428L; also called Anti-IL-17/TNF DVD-Ig Protein
On to B1, for which the binding result with Fcγ RIIIa, variant 158F was “no binding”; in the assay with Fcγ RIIb, “no binding”; with Fcγ RIIa, variant 131H, “no binding”; with Fcγ RI, “no binding”; with Fcγ RIIa, variant 131R, “no binding”; with BAFF, “no binding”. Besides, the binding result with IL-17D is listed as “no binding”; in the assay with rabbit TNF, “no binding (tested: at concentrations up to 500 nM of rTNF)”; in the assay with rat TNF, “no binding (tested: at concentrations up to 500 nM of rTNF)”; with mouse TNF it was “no binding (tested: at concentrations up to 500 nM of rTNF)”. Moreover, the dissociation constant Kd with human IL-17A/A homodimer was 0.003 nM; with human TNF-α it was 0.0049 nM; with mouse IL-17, 0.072 nM; in [1] it was 0.011 nM; in assay [2], 0.024 nM; with rat IL-17, less than 0.035 nM.
